Among the data in paper PMC9483092 are percent decrease of IL4I1 binding to TMPRSS13 with 20 µg S2 per 80 µg IL4I1 values, retold here.

In the assay the target is DYK-tagged transmembrane serine protease 13 (TMPRSS13) stably expressed in HEK cells (HEK-T) (human) (UniProt Q9BYE2). Nature of the assay: co-IP; competition: 20 µg recombinant spike S2 fragment added to HEK-T cells 2 h before IL4I1; read-out IL4I1 co-precipitated with TMPRSS13-DYK.
UniProt Q9BYE2, sequence (Q9BYE2 other isoform, or with tags, fused parts or gaps): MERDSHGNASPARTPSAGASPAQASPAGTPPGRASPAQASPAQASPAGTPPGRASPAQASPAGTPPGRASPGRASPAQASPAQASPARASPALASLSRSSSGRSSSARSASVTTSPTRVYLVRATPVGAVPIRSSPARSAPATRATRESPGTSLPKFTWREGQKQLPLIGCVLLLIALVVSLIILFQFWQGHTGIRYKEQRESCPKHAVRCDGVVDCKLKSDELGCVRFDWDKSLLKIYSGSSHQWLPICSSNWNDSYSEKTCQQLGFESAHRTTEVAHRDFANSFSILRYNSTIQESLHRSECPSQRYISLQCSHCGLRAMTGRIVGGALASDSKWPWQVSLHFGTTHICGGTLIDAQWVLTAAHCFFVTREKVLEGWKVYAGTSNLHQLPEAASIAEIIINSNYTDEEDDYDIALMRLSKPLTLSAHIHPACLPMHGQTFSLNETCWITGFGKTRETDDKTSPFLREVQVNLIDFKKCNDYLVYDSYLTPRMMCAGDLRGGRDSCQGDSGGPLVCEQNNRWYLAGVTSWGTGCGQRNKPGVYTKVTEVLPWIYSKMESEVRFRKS

With “recombinant S2 fragment of the SARS-CoV-2 spike protein (domain or fragment)”, the percent decrease of IL4I1 binding to TMPRSS13 with 20 µg S2 per 80 µg IL4I1 was 50%.
